Results on four molecules are retold here after paper PMC8900818, “The suppressor of copper sensitivity protein C from Caulobacter crescentus is a trimeric disulfide isomerase that binds copper(I) with subpicomolar affinity” (Acta Crystallographica. Section D, Structural Biology, 2022).

The target in data set [1] is Caulobacter crescentus suppressor of copper sensitivity protein C, C2S variant (Caulobacter crescentus). Put plainly: mass photometry; reduced proteins diluted to ~150 nM and added in 2 µl steps to 10 µl buffer (25 mM HEPES pH 7.5, 150 mM NaCl); Refeyn One; mass of the main peak against the monomer's mass.
Data set [2] has the same target. Put plainly: crystal structure; reduced CcScsC C2S at 130 mg/ml, 37-39% MPD, 0.02 M CaCl2, 0.2 M sodium acetate pH 7.25, 4°C; space group P63, one protomer per asymmetric unit, trimer by crystallographic symmetry.
Data set [3] addresses Caulobacter crescentus suppressor of copper sensitivity protein C, wild type (Caulobacter crescentus). Nature of the data set: SEC-SAXS; inline SEC-SAXS (S200 5/150 GL) with sheath flow, 283 K, injection 5.6 mg/ml; molecular mass from the Porod volume.
For data set [4] the target is unchanged. Nature of the data set: mass photometry; reduced proteins diluted to ~150 nM and added in 2 µl steps to 10 µl buffer (25 mM HEPES pH 7.5, 150 mM NaCl); Refeyn One; mass of the main peak against the monomer's mass.
For data set [5], the target named is Proteus mirabilis ScsC (Proteus mirabilis). Described as above.
Data set [6] concerns the molecule itself. The data set is described as above.

Regarding “Caulobacter crescentus suppressor of copper sensitivity protein C, C2S variant (enzyme)”, the stoichiometry N in data set [1] and in data set [2] was 3 in each case.
For the molecule “Caulobacter crescentus suppressor of copper sensitivity protein C, wild type (enzyme)”, the stoichiometry N in data set [3] and in data set [4] was 3 each time.
Proteus mirabilis ScsC (enzyme): the stoichiometry N (usually a count of units in the complex or per binding partner) in data set [5] came out at 3.

B1: Escherichia coli DsbC (enzyme, UniProt P0AEG6 21-236, looked up)
chain: DDAAIQQTLAKMGIKSSDIQPAPVAGMKTVLTNSGVLYITDDGKHIIQGPMYDVSGTAPVNVTNKMLLKQLNALEKEMIVYKAPQEKHVITVFTDITCGYCHKLHEQMADYNALGITVRYLAFPRQGLDSDAEKEMKAIWCAKDKNKAFDDVMAGKSVAPASCDVDIADHYALGVQLGVSGTPAVVLSNGTLVPGYQPPKEMKEFLDEHQKMTSGK
notes: E. coli DsbC, UniProt P0AEG6; monomer printed as 24.1 kDa; Control protein of the mass photometry; Probably the mature protein without signal peptide; also called EcDsbC
As to B1, in data set [6], the “stoichiometry N” value came to 2.
